pKd: −log10 of the molar value.
Molecular target: recombinant Fc−ICAM-1 (human) (UniProt P05362)
Assay: BLI; Octet QKe; DBLβ domains on an Fc−ICAM-1 probe; apparent Kd from double-reference-subtracted data of three concentrations, global 1:1 Langmuir fit

UniProt P05362, sequence (P05362 28-480): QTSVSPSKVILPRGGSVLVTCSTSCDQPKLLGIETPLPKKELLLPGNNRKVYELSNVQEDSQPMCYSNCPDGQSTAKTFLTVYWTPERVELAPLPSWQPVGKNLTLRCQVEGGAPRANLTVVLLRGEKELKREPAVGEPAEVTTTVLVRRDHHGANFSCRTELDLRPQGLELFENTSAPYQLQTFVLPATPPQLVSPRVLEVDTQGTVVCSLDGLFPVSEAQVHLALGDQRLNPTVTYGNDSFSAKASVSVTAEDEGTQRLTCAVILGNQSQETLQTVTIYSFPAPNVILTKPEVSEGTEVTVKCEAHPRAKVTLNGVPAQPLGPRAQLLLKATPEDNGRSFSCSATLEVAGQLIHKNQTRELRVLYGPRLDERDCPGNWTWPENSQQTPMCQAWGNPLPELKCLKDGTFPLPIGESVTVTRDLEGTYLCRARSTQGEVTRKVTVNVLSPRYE

IT4var07DBLβ1 (N726-C1211) (domain or fragment)
pKd: 8.06

Source: article PMC4958245
